Paper PMC3717379 (Biochemistry, 2013)
Where two headings read alike, the source gives them in different places. No end group written: not given here. IANBD = IANBD fluorescent probe (code IAN) attached to the cysteine

How the values were obtained:
SecA-340C = SecA-340C (Escherichia coli, UniProt P10408, C885S/C887S/C896S/C98S/T340C); assay type: binding
SecA-458C = SecA-458C (Escherichia coli, UniProt P10408, C885S/C887S/C896S/C98S/S458C); assay type: binding
wildtype SecA = wildtype SecA (Escherichia coli, UniProt P10408); experiment: Fluorescence anisotropy binding of IAN-labeled signal peptide to wildtype SecA
SecA-506C = SecA-506C (Escherichia coli, UniProt P10408, C885S/C887S/C896S/C98S/M506C); assay type: binding
SecA (Escherichia coli) [1] = biological target: SecA (Escherichia coli) (UniProt P10408); conditions: cited from earlier work
SecA (Escherichia coli) [2] = biological target: SecA (Escherichia coli) (UniProt P10408); conditions: cited from earlier work; remark: listed apart in the source
[3] = biological target: monocysteine SecA mutant SecA-402C (E. coli) (UniProt P10408); experiment: FRET or BRET
[4] = biological target: monocysteine SecA mutant SecA-59C (E. coli) (UniProt P10408); experiment: FRET or BRET
[5] = biological target: SP22, 22 residue long E. coli alkaline phosphatase signal peptide with cysteine at position 22 (E. coli); experiment: fluorescence polarisation
[6] = biological target: monocysteine SecA mutant SecA-340C (E. coli) (UniProt P10408); experiment: FRET or BRET
[7] = biological target: monocysteine SecA mutant SecA-458C (E. coli) (UniProt P10408); experiment: FRET or BRET
[8] = biological target: monocysteine SecA mutant SecA-506C (E. coli) (UniProt P10408); experiment: FRET or BRET
[9] = biological target: monocysteine SecA mutant SecA-696C (E. coli) (UniProt P10408); experiment: FRET or BRET
[10] = biological target: wildtype SecA (Escherichia coli) (E. coli, UniProt P10408 1-901); experiment: fluorescence polarisation

MCKQSTIALALLPLLYTPVTKARTPEMPVLENRAAQGDITA-NH2 [SP41]
Kd (SecA-340C): 6.2 ± 4.3 µM | Kd (SecA-458C): 4.8 ± 0.6 µM | Kd (wildtype SecA): 6.2 ± 0.8 µM | Kd (SecA-506C): 6.3 ± 1 µM

MKQSTIALALLPLLFTPVTKAC-NH2 [SP22]
Kd (SecA-340C): 1.1 ± 0.4 µM | Kd (SecA-458C): 3 ± 1.7 µM | Kd (SecA-506C): 1.5 ± 0.7 µM

SecA (from UniProt P10408)
Kd (SecA (Escherichia coli) [1]): 2.2 µM | Kd (SecA (Escherichia coli) [2]): 0.001 µM

monocysteine SecA mutant SecA-59C (from UniProt P10408 1-901) (natural protein)
E FRET (IAE-IAN dye pair) [3]: 0.4 | E FRET (AF568-AF647 dye pair) [4]: 1 | E FRET (IAE-IAN dye pair) [4]: 0.38

monocysteine SecA mutant SecA-340C (from UniProt P10408 1-901) (natural protein)
Kd [5]: 1.1 µM | E FRET (AF488-AF568 dye pair) [6]: 0.78 | E FRET (IAE-IAN dye pair) [6]: 0.12 | E FRET with SP22 (AF488-AF568 dye pair) [6]: 0.64 | E FRET with SP41 (AF488-AF568 dye pair) [6]: 0.23

monocysteine SecA mutant SecA-402C (from UniProt P10408 1-901) (natural protein)
E FRET (AF488-AF568 dye pair) [3]: 0.31 | E FRET (IAE-IAN dye pair) [3]: 0.19

monocysteine SecA mutant SecA-458C (from UniProt P10408 1-901) (natural protein)
Kd [5]: 3 µM | E FRET with SP22 (AF488-AF568 dye pair) [7]: 0.45 | E FRET with SP41 (AF488-AF568 dye pair) [7]: 0.45

monocysteine SecA mutant SecA-506C (from UniProt P10408 1-901) (natural protein)
Kd [5]: 1.5 µM | E FRET with SP22 (AF568-AF647 dye pair) [8]: 0.67 | E FRET with SP41 (AF568-AF647 dye pair) [8]: 0.69

monocysteine SecA mutant SecA-696C (from UniProt P10408 1-901) (natural protein)
Kd [5]: 2.5 µM | E FRET (AF488-AF568 dye pair) [9]: 0.23 | E FRET with SP22 (AF568-AF647 dye pair) [9]: 0.42 | E FRET with SP41 (AF568-AF647 dye pair) [9]: 0.41

MKQSTIALALLPLLFTPVTKAC(IANBD)-NH2 [SP22, 22 residue long E. coli alkaline phosphatase signal peptide with cysteine at position 22]
Kd [10]: 1.4 ± 0.2 µM
